Laboratory results reported in publication PMC10694151, “Regulation of the cell division hydrolase RipC by the FtsEX system in Mycobacterium tuberculosis” (Nature Communications, 2023).

B1: FtsE (Rv3102c) of Mycobacterium tuberculosis (natural protein)
chain: MMITLDHVTKQYKSSARPALDDINVKIDKGEFVFLIGPSGSGKSTFMRLLLAAETPTSGDVRVSKFHVNKLRGRHVPKLRQVIGCVFQDFRLLQQKTVYDNVAFALEVIGKRTDAINRVVPEVLETVGLSGKANRLPDELSGGEQQRVAIARAFVNRPLVLLADEPTGNLDPETSRDIMDLLERINRTGTTVLMATHDHHIVDSMRQRVVELSLGRLVRDEQRGVYGMDR
notes: also called MtbFtsE; NBD
B2: FtsX (Rv3101c) of Mycobacterium tuberculosis (natural protein)
chain: MRFGFLLNEVLTGFRRNVTMTIAMILTTAISVGLFGGGMLVVRLADSSRAIYLDRVESQVFLTEDVSANDSSCDTTACKALREKIETRSDVKAVRFLNRQQAYDDAIRKFPQFKDVAGKDSFPASFIVKLENPEQHKDFDTAMKGQPGVLDVLNQKELIDRLFAVLDGLSNAAFAVALVQAIGAILLIANMVQVAAYTRRTEIGIMRLVGASRWYTQLPFLVEAMLAATMGVGIAVAGLMVVRALFLENALNQFYQANLIAKVDYADILFITPWLLLLGVAMSGLTAYLTLRLYVRR
notes: also called MtbFtsX

How the values were obtained:
[1] = biological target: T1, MtbFtsEX/RipC (Mycobacterium tuberculosis, UniProt O05779)
T1 construct: gene ftsE

[2] = biological target: B2; test: cryo-EM structure; FtsEX or FtsEX-RipC in peptidiscs, 3 mg/ml, ATP-free; settings: both partners purified
[3] = biological target: the molecule itself; test: as above

T1 sequence (P9WHU3 34-385, one chain of several, further chain): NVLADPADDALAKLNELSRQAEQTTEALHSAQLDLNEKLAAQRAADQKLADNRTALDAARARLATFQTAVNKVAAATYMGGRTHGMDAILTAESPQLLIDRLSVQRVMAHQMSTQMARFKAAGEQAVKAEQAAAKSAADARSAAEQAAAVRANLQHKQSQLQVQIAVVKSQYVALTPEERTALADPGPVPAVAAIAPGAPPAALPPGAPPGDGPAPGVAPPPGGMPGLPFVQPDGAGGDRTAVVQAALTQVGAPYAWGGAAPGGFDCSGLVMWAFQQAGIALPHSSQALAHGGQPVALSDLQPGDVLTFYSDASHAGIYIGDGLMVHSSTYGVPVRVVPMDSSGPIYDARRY

Nc1ncnc2c1ncn2[C@@H]1O[C@H](COP(=O)(O)OP(=O)(O)O)[C@@H](O)[C@H]1O [ADP]
cryo-EM structure, 5.7 Å, polyalanine model [1]: with EM density compatible with an ADP molecule

B1
binding result [2]: binds

B2
stoichiometry N [3]: 2
